Results on 3 molecules are retold here after patent US20240350669A1, “INHIBITION OF KYNURENINE SYNTHESIS AND/OR SIGNALING TO TREAT LEUKEMIA AND MYELODYSPLASIA” (THE TRUSTEES OF COLUMBIA UNIVERSITY IN THE CITY OF NEW YORK, priority 2022, published 2024).

The test system of series [1] is WEHI-3B. In words: Transplant of Ido1-edited WEHI-3B cells into mice. The format is in vivo, mouse. The note with it: edited WEHI-3B cells versus Cas9-only. As for the experimental part: All leukemia models were introduced by intravenous (i.v.) injection and transplanted into non-irradiated secondary recipient experimental animals. BALB/c mice were used for the WEHI-3B leukemia model (0.5×10^6/cells/mouse) and C57BL/6J mice for MLL/AF9-dsRed (0.2×10^6/cells/mouse). Leukemia progression was assessed by fluorescence (MLL/AF9 dsRed) using the IVIS-Spectrum Optical Imaging System (Caliper, Perkin Elmer). Mice were shaved to reduce light attenuation.
The chemically modified sgRNAs targeting IDO1 were obtained and designed with at least 3 mismatches to decrease possible off target effects with the Synthego CRISPR design tool or the CRISPOR. […] In addition, lack of random effects due to TP53 activation, was shown by p16 and p21 mRNA level assessment in Cas9-only controls as well as in all the sgRNAs used. For 10^6 cells, 3 μg of TrueCut Cas9 protein V2 (Invitrogen) and 1.5 μg sgRNA were mixed in either SE (immortalized cell lines WEHI-3B and OCI-AML3) or P3 (primary mouse MLL/AF9 or patient-derived AML cells) buffer (Lonza, Amaxa X-Nucleofector Kit) and incubated 10 mins. Cells were then resuspended in their respective nucleofection buffer, mixed with the Cas9/sgRNA RNP complex or the Cas9 only as control, and electroporated with the Lonza 4D-Nucleofector (program DZ100, CM137 or DI100). […]

For series [2], the system named is MLL/AF9 cells. Put plainly: Transplant of Ido1-edited MLL/AF9 cells into WT non-irradiated recipients. The note with it: exon-3-edited MLL/AF9 cells versus Cas9-only. The format is in vivo, mouse.
For series [3], the system named is IDO1. Put plainly: CRISPR/Cas9 Ido1 editing of primary murine MLL/AF9 cells. The format is cell-based, mouse. The following applies: Ido1 exon 3, MLL/AF9 cells. As for the experimental part:
The chemically modified sgRNAs targeting IDO1 were obtained and designed with at least 3 mismatches to decrease possible off target effects with the Synthego CRISPR design tool or the CRISPOR. […] In addition, lack of random effects due to TP53 activation, was shown by p16 and p21 mRNA level assessment in Cas9-only controls as well as in all the sgRNAs used. For 10^6 cells, 3 μg of TrueCut Cas9 protein V2 (Invitrogen) and 1.5 μg sgRNA were mixed in either SE (immortalized cell lines WEHI-3B and OCI-AML3) or P3 (primary mouse MLL/AF9 or patient-derived AML cells) buffer (Lonza, Amaxa X-Nucleofector Kit) and incubated 10 mins. Cells were then resuspended in their respective nucleofection buffer, mixed with the Cas9/sgRNA RNP complex or the Cas9 only as control, and electroporated with the Lonza 4D-Nucleofector (program DZ100, CM137 or DI100). After electroporation, cells were cultured in their respective media at 37° C. until sequencing analysis and/or injection. The editing efficiency data, indel contribution and Sanger sequence analyses were performed with the Synthego Performance Analysis, ICE Analysis. 2019. v2.0. (Synthego).

Series [4] relates to AML and MDS BM MNCs. Put plainly: Ex vivo lineage-depleted AML and MDS patient BM MNCs exposed to SAA1. The note with it: SAA1 5 μg/ml, 24 h. The format is cell-based, human. As for the experimental part:
(§1) Treatments with recombinant proteins: human IL-1α, IL-1β, IL-6, IL-33, IL-34, CXCL1, CXCL3, CXCL5, CXCL8, CCL2, CCL20, Apo-SAA1 (all from Peprotech) and recombinant mouse SAA3 (Cusabio) were performed by o/n treatment with 50 ng/ml of the corresponding protein. SAA1 treatment of human AML cell lines was done with 1 μg/ml for 24, 48 or 72 h. Treatment of primary human MDS or AML lineage-depleted BM-MNCs was done with 5 μg/ml for 24 h. Treatment of PDX isolated human total BM cells was done with 1 μg/ml for 24 h.
(§2) Cell proliferation was performed by using Cell Counting Kit 8 (WST-8, Abcam) as per manufacturer's instructions. Briefly, 0.03×10^6 cells were seeded on tissue-culture clear bottom microplates (Corning) in their corresponding media (100 μl). When indicated, cells were treated with the indicated compounds and for the indicated time points. 10 μl/well of WST-8 solution was added and incubated for 2 h at 37° C. before measuring absorbance at 460 nm. For each experiment, the absorbance of the blank wells (growth media and vehicle/treatment) was subtracted from the values for those wells with cells.
Ex vivo primary AML and MDS patient's samples: MNCs from fresh BM patients' aspirates were isolated as previously described and depleted from mature hematopoietic cells (lineage Cell Depletion Kit, Miltenyi Biotec Cat #130-092-211). […]

Series [5] concerns human BM cells from PDX healthy or PDX AML mice. In words: Ex vivo total human BM cells isolated from PDX mice exposed to SAA1. In kind it is cell-based. The following applies: SAA1 1 μg/ml, 24 h. As for the experimental part: as §1, §2
Ex vivo xenografts (healthy CD34^+ versus patient-derived AML): total BM from NSGS mice was depleted of mouse cells with mouse CD45 magnetic beads (Miltenyi Biotec Cat #130-052-301, RRID: AB_2877061) and negatively selected human cells used.

For series [6], the system named is WEHI-3B cells. Put plainly: Ido1 mRNA in WEHI-3B cells exposed to recombinant SAA. In kind it is cell-based, mouse. The following applies: o/n treatment. As for the experimental part:
as §1
(§3) RNA isolation, cDNA preparation and real-time PCR analyses were carried out following standard protocols. Total RNA from cortical bone (clean, flushed femurs, were centrifugated 20 seconds at 10.000 g's to remove any remaining BM) was extracted using TRIzol (Invitrogen) followed by RNA clean-up using PureLink RNA Mini Kit (Ambion, Invitrogen). mRNA was reversed transcribed using random hexamers RNA-to-cDNA kit (Takara). Specific forward and reverse primers were used in conjunction with PowerUp SYBR Green Master Mix (Applied Biosystems) for quantitative PCR. Expression levels were analyzed using the 2^−ΔΔCt method and were normalized for the expression of the housekeeping gene Hprt unless otherwise stated.

In series [7] the test system is OCI-AML3 cells. In words: IDO1 mRNA in OCI-AML3 cells exposed to recombinant osteoblast-secreted molecules. In kind it is cell-based, human. The note with it: o/n treatment, 50 ng/ml. As for the experimental part: as §1, §3
Series [8] has as its system human AML and MDS cell lines. In words: mRNA levels in human AML and MDS cell lines exposed to SAA1. In kind it is cell-based. As for the experimental part:
as §1, §3

Series [9] deals with human AML cell lines. Put plainly: WST-8 proliferation of human AML cell lines exposed to SAA1. In kind it is cell-based. The note with it: SAA1 1 μg/ml, 24-72 h, versus vehicle. As for the experimental part:
as §1, §2
In vitro: the indicated cell lines were incubated in reduced-serum media and exposed to SAA1 (1 μg/ml) for the 24-72 h as indicated.
A general note: Tetrazolium dyes change colour on reduction, which living cells bring about.

Series [10] concerns leukemic blasts (hCD45+CD33+). Put plainly: In vivo SAA1 treatment of PDX mice, Edu cell cycle analysis of leukemic blasts. Also noted: species or system mouse. As for the experimental part:
SAA1 (Peprotech Cat #300-53) treatment: for short-term treatment (2 days), mice were injected intra venous (i.v.) 72 h and 48 h before harvesting. For long-term treatment (8-days), mice received daily i.v. injections. In order to get the same SAA1 concentration in blood that the one used in vitro, we used a dosage of 100 μg/kg of SAA1, diluted in 0.9% NaCl. Assuming a 20 g body weight, 2 ml total blood volume, and an even distribution in the mouse, systemic concentration of SAA1 should be approximately 1 μg/ml.
4-6 weeks old NSG (CDX model) or NSGS (PDX model) mice were pre-conditioned with sublethal (1.4 Gy) total-body irradiation. 24 h after, 1×10^6 OCI-AML3 or 2×10^5 human BM CD34^+ (healthy) or primary AML patient samples were injected i.v. Engraftment levels were monitored and mice were randomized after BM aspiration 3-4 weeks later and immunophenotyped by the presence of mCD45 (BioLegend Cat #103133, RRID: AB_10899570), hCD45 (BioLegend Cat #368512, RRID: AB_2566372), hCD33 (BioLegend Cat #303404, RRID: AB_314348), hCD34 (BioLegend Cat #343518, RRID: AB_1937203) cell populations. For the low-burden PDX model (kynurenine injections), mice were treated 1 week after transplant.
Cell labelling was done by i.p. injection of mice with 50 mg/kg of freshly prepared 5-Ethynyl-2′-deoxyuridine-Edu-(Cayman Chemical Company Cat #20518). After 3-4 h, BM was harvested, and human cells were negatively selected by mouse cell depletion using mouse CD45 magnetic beads (Miltenyi). The human BM cells were then stained CD45 and CD33 to identify the leukemic blast. Cell cycle/proliferation analysis was performed using the Click-iT Plus EdU Flow Cytometry Assay Kit (Invitrogen, Cat #C10420) following manufacturers' instructions. Fixable viability dye (Biolegend) was used to discriminate the death population. Single color controls were used to set compensations and fluorescence minus one control were used to set gates. Analysis was performed with FlowJo software.

Series [11] concerns WEHI-3B. In words: WST-8 proliferation of mouse WEHI-3B AML cells exposed to SAA3. The note with it: SAA3 1 μg/ml, 24-72 h, versus vehicle. The format is cell-based.
Setting [12] is: SAA1 i.v., 2- and 8-day treatments.

Regarding “sgRNA #146: mouse sgRNA targeting Ido1 exon 3: CGCCAUGGUGAUGUACCCCA GGG (guide CGCCAUGGUGAUGUACCCCAGGG; listed as RNA, chemistry not fully specified)”, the survival result in series [1] is given as “significant increased survivals”. Also, the disease progression result in series [2] is “abrogated”. Also, the deletion efficiency in series [3] is reported as about 56%.

B1: SAA1: recombinant human acute-phase protein serum amyloid A1 (Peprotech) (protein, UniProt P0DJI8 19-122, looked up)
Serum amyloid A-1 protein: RSFFSFLGEAFDGARDMWRAYSDMREANYIGSDKYFHARGNYDAAKRGPGGAWAAEVITDARENIQRFFGHGAEDSLADQAANEWGRSGKDPNHFRPAGLPEKY
On to B1, for which, in series [4], the “IDO1 mRNA levels in patient-derived BM MNCs” value is listed as “increased”; the “proliferation of lineage-depleted AML and MDS BM MNCs” value was “promoted proliferation”. Further, the “proliferation of human cells from CD34+ healthy-injected mice” value in [5] is given as “unresponsive”. Further, in series [5] (versus vehicle), the “proliferation of patient-derived cells from AML-injected mice” value is reported as “high proliferative activity”. For the same molecule, in series [5] (PDX-AML versus CD34+ healthy-injected mice), the “CYP1A1 and CYP1A2 gene expression” value was “only upregulated in response to SAA1 in the human BM cells isolated from the PDX-AML”. Further, in series [5] (PDX-AML versus PDX healthy cells), the IDO1 expression entry is given as “only upregulated in response to SAA1 in the PDX-AML isolated human cells”. Also, the “Ido1 expression in WEHI-3B cells” value in series [6] was “able to upregulate Ido1 expression”. Further, the “IDO1 expression in OCI-AML3 leukemic cells” value in [7] is “able to upregulate IDO1 expression”. The “IDO1 expression across human AML cell lines and MDS-L” value in series [8] (SAA1) is recorded as “observed across several human AML cell lines as well as the MDS-L cell line”. The “expression of AHR target genes” value in [8] (SAA1 1 μg/ml o/n) is on record as “upregulated most of the main AHR targets genes”. In [9], the “proliferation of AML cell lines” value is recorded as “increased proliferation”. Also, in series [10] (8-day treatment), the “% of Sub-G1 apoptotic cells” value is “reduced”. Besides, the “proliferative rate of leukemic blasts (Edu+ cells, S-phase)” value in series [10] (SAA1 100 μg/kg i.v., 2- and 8-day treatments) is “maintained and prominent increase”. In series [10] (setting [12]), the G0-G1 cells entry is listed as “decrease” and the G2-M phase entry is “unvarying”. Moreover, the “increase in AML burden in the BM” value in [10] (completion of the 8-day treatment) worked out at 1.5 fold.

B2: SAA3: recombinant mouse SAA3 (Cusabio), murine orthologue of SAA1 (protein, UniProt P04918 19-122, looked up)
Serum amyloid A-3 protein: QRWVQFMKEAGQGSRDMWRAYSDMKKANWKNSDKYFHARGNYDAARRGPGGAWAAKVISDAREAVQKFTGHGAEDSRADQFANEWGRSGKDPNHFRPAGLPKRY
B2: the “Ido1 expression in WEHI-3B cells” value in series [6] is reported as “upregulated Ido1 expression”. Further, in [11], the “proliferation of AML cell lines” value is “increased proliferation”.
